Results from PMC4592898, “Biochemical Characterisation of Phage Pseudomurein Endoisopeptidases PeiW and PeiP Using Synthetic Peptides” (Archaea, 2015).

B1: PeiW (Methanothermobacter phage psiM100) (protein)
chain: MEVGLNEFLDMKKRYEDFKMKNKREPRYVTTKNGYKVMLPVFKDMLRRYEDFVRINGREPNYISIQPQPNGKIEIKKFRDMLRRYEDFVRINGREPNIIYLEQGKSDHVSLGTFKDMLRRYKDFVRINGREPNYISIQPQPSLKGHWTTKVIEKIGTFHDATSLYERVKKTCKYKYYYNDQVPNHVAVMRMTTSGINCTDACQLFSKVLEEMGYEVKIEHVRVKCNDGKWYGHYLLRVGGFELKDGTIWDYVSATKTGRPLGVPCCTAGFQHLGWGIVGPVYDK
notes: N-terminal His-tag kept, pET151D, E. coli BL21-Rosetta 2; 317 residues and 37,219 Da with tag; monomer
B2: PeiP (Methanobacterium phage psiM2) (protein)
chain: MRSNSVNIETFKDMLKRYEDFKMKNKREPRVIFIRSGGGESIPLETFRDMVRRYNNFKDRYGREPRIVYVTPPEPPVPEVNENTPEYVSITQFKDMLSRYNRFKEVNGREPRVVFIYSGGGPSVSLETFKDMCKRYNQFLEENRREPRIVYVTPPEPPVPEEVREMRRVLGEFKTATQLYTLVSRRCKYKFYYNDQTPNREALKKMVTDGINCTDACQLFKPVIEGLGYSVRIEHVKVRCNDNKWYGHYFLRVAGKELASVSLPSERWTVWDYVSATKTGRPLGAPCCSRGIQHLGWGIVSPKHD
notes: N-terminal His-tag kept, pET151D, E. coli BL21-Rosetta 2; 338 residues and 39,537 Da with tag; monomer

Columns and labels:
[1] = substrate: C[C@H](NC(=O)CC[C@H](N)C(=O)O)C(=O)Nc1ccc([N+](=O)[O-])cc1; assay: purified protein; assay type: biochemical, Methanothermobacter phage psiM100; conditions: 60 °C, pH 7.85 Bistris propane, 10 mM CaCl2, 10 mM TCEP, aerobic, substrate range limited to about 1 x Km
[2] = substrate: C[C@H](NC(=O)CC[C@H](N)C(=O)O)C(=O)Nc1ccc([N+](=O)[O-])cc1; assay: purified protein; assay type: biochemical, Methanobacterium phage psiM2; conditions: 60 °C, pH 7.85 Bistris propane, 10 mM CaCl2, 10 mM TCEP, aerobic, substrate range below Km

Protein | Km [1] | kcat [1] | Km [2] | kcat [2]
B1 | 6.25 ± 0.44 mM | 5.73 ± 0.22 s⁻¹ |  | 
B2 |  |  | 4.14 ± 0.14 mM | 1.18 ± 0.03 s⁻¹
